Reference: PMC3858845 (Molecular bioSystems, 2014)

Assays:
[1] = target: hmIYD (Hydra vulgaris, UniProt T2MBC4); experiment: FMN occupancy of purified enzyme from A450 and A280; type: binding; details: FMN bound as isolated; partly purified enzyme
[2] = target: hhIYD (Haliscomenobacter hydrossis, UniProt F4KU78); experiment: as above; type: binding; details: FMN bound as isolated
[3] = target: amIYD (Apis mellifera, UniProt A0A7M7RAX7); experiment: as above; type: binding; details: FMN bound as isolated
[4] = target: dpIYD (Daphnia pulex, UniProt E9FR69); experiment: as above; type: binding; details: FMN bound as isolated
[5] = target: T1, drIYD (Danio rerio, UniProt E7FDV5); experiment: as above; type: binding; details: FMN bound as isolated
T1 sequence (E7FDV5 24-295 limits assumed): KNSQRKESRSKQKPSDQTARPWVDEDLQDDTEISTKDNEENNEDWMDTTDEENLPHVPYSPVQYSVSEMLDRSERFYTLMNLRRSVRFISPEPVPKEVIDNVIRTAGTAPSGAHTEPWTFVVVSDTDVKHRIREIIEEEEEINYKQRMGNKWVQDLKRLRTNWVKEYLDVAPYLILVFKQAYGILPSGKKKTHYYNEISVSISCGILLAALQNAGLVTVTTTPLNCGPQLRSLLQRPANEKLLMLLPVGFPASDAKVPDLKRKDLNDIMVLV

[6] = target: bfIYD (Branchiostoma floridae, UniProt C3Y0Q6); experiment: as above; type: binding; details: FMN bound as isolated
[7] = target: nvIYD (Nematostella vectensis, UniProt A7S5D9); experiment: as above; type: binding; details: FMN bound as isolated
[8] = substrate: N[C@@H](Cc1cc(I)c(O)c(I)c1)C(=O)O; experiment: purified protein; type: biochemical, Haliscomenobacter hydrossis; details: labelled compound; excess FMN present in assay
[9] = substrate: N[C@@H](Cc1cc(I)c(O)c(I)c1)C(=O)O; experiment: purified protein; type: biochemical, Danio rerio; details: labelled compound; excess FMN present in assay
[10] = substrate: N[C@@H](Cc1cc(I)c(O)c(I)c1)C(=O)O; experiment: purified protein; type: biochemical, Daphnia pulex; details: labelled compound; excess FMN present in assay
[11] = substrate: N[C@@H](Cc1cc(I)c(O)c(I)c1)C(=O)O; experiment: purified protein; type: biochemical, Nematostella vectensis; details: labelled compound; excess FMN present in assay

hmIYD, sequence (T2MBC4 43-272): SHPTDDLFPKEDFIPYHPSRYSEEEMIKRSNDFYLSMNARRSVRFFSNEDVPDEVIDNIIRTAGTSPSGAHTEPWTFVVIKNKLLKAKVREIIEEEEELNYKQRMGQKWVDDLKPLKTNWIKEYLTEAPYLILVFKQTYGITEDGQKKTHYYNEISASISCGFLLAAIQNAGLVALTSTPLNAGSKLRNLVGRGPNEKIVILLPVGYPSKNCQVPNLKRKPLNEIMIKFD

Molecule: Cc1cc2nc3c(=O)[nH]c(=O)nc-3n(C[C@H](O)[C@H](O)[C@H](O)COP(=O)(O)O)c2cc1C [FMN]
- FMN occupancy [1]: 59%
- FMN occupancy [2]: 95%
- FMN occupancy [3]: 95%
- FMN occupancy [4]: 95%
- FMN occupancy [5]: 95%
- FMN occupancy [6]: 95%
- FMN occupancy [7]: 55%

B1: hhIYD (Haliscomenobacter hydrossis DSM 1100) (protein)
chain: MKQKPAFIPYAGAQFEPEEMLSKSAEYYQFMDHRRTVREFSNRAIPLEVIENIVMTASTAPSGAHKQPWTFVVVSDPQIKAKIRQAAEKEEFESYNGRMSNEWLEDLQPFGTDWHKPFLEIAPYLIVVFRKAYDVLPDGTQRKNYYVQESVGIACGFLLAAIHQAGLVALTHTPSPMNFLQKILQRPENERPFLLVPVGYPAEGAMVPDLQRKDKAAVMVVY
- Km [8]: 6.6 ± 0.9 µM
- kcat [8]: 0.09 ± 0.005 s⁻¹
- kcat/Km [8]: 13300 ± 1670 M⁻¹ s⁻¹

B2: drIYD (Danio rerio) (protein)
chain: KNSQRKESRSKQKPSDQTARPWVDEDLQDDTEISTKDNEENNEDWMDTTDEENLPHVPYSPVQYSVSEMLDRSERFYTLMNLRRSVRFISPEPVPKEVIDNVIRTAGTAPSGAHTEPWTFVVVSDTDVKHRIREIIEEEEEINYKQRMGNKWVQDLKRLRTNWVKEYLDVAPYLILVFKQAYGILPSGKKKTHYYNEISVSISCGILLAALQNAGLVTVTTTPLNCGPQLRSLLQRPANEKLLMLLPVGFPASDAKVPDLKRKDLNDIMVLV
- Km [9]: 8 ± 1 µM
- kcat [9]: 0.0683 ± 0.00333 s⁻¹
- kcat/Km [9]: 8500 ± 1170 M⁻¹ s⁻¹

B3: dpIYD (Daphnia pulex) (protein)
chain: VKRESAIEQINEIEDDDEQSLEDQDVLPILFQYEKPSEADSIRRSEEFYRRMNQRRSVREISSDPVALEVIENIIKTGGTSPSGAHTEPWTFVVVSNLEMKQQIRQIIEAEEEINYKQRMGDVWVQDLQPVGTTWVKEYLTEAPWLILIFKQVHGFKRNGQKKIHYYNEISVSIATGFLLAAIQEAGLVTVTTTPLNCGPSIRVLLGRPVNEKLLLLLPVGYPKVGATVPDFKRKPLHDIMVHYQ
- Km [10]: 7 ± 1 µM
- kcat [10]: 0.293 ± 0.0133 s⁻¹
- kcat/Km [10]: 41700 ± 6670 M⁻¹ s⁻¹

B4: nvIYD (Nematostella vectensis) (protein)
chain: MEVFKALFKSKEAYTVDVDPMKDSDEHDLPRDPLSIRVTGEEEVNHIPYPYFDEIPTEEEMKKKSAEFYKSMKKRRTVRKISSEPVPLEVIENIVRVAGTSPSGAHTEPWTYVVIRDPDLKKQIKEVVEEEEQLNYARRMGEKWVQDLSILKTTWSKPYIETAPYLILIFKQVYGIKPDGDKKVHYYNEISVCISCGLLLAAIQNAGLVTVTSTPMNAGPRLRVLLNRPQNEKLIMLLPVGYPAKDAEVPNLTRKPLEEIMVLK
- Km [11]: 105 ± 26 µM
- kcat [11]: 0.533 ± 0.0667 s⁻¹
- kcat/Km [11]: 5000 ± 1330 M⁻¹ s⁻¹
